Test results as given in the RNAGym collection of RNA variant scans (doi:10.1093/molbev/msab373).

B1: Azoarcus group I ribozyme (parent)
chain: GUGCCUUGCGCCGGGAAACCACGCAAGGGAUGGUGUCAAAUUCGGCGAAACCUAAGCGCCCGCCCGGGCGUAUGGCAACGCCGAGCCAAGCUUCGGCGCCUGCGCCGAUGAAGGUGUAGAGACUAGACGGCACCCACCUAAGGCAAACGCUAUGGUGAAGGCAUAGUCCAGGGAGUGGCGAAAGUCACACAAACCGG

Variants of: B1
Assay: reverse-splicing fitness (ratio to wild type); higher = more active; in vitro selection; Mg2+ level not given
In short: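 An in vitro group I ribozyme library with randomized positions was T7-transcribed and gel-purified. In triplicate, 10 pmol RNA in EPPS pH 7.5 was reacted with 50 pmoles of a 30-nt RNA substrate for 1 h at 37 °C across several added MgCl2 levels (1–48 mM), then stopped with EDTA. Products were reverse transcribed from a substrate-complementary primer, PCR-amplified and sequenced (HiSeq 4000). Fitness is a variant's read proportion after selection over that before, normalised to wild type.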
For C82U A120U A145U C150U C169G U176A, the reverse-splicing fitness was 0.00254.
With C82U A120U A145U C150U C169G U176C the reverse-splicing fitness was 0.00299.
Variant C82U A120U A145U C150U C169G U176G has a reverse-splicing fitness of 0.00157.
With C82U A120U A145U C150U C169U the reverse-splicing fitness was 0.00476.
C82U A120U A145U C150U C169U U176A gave a reverse-splicing fitness of 0.0028.
Variant C82U A120U A145U C150U C169U U176C has a reverse-splicing fitness of 0.00368.
Variant C82U A120U A145U C150U C169U U176G has a reverse-splicing fitness of 0.00217.
In the case of C82U A120U A145U C150U U176A, the reverse-splicing fitness is reported as 0.0284.
In the case of C82U A120U A145U C150U U176C, the reverse-splicing fitness is reported as 0.0465.
Work on C82U A120U A145U C150U U176G yielded a reverse-splicing fitness of 0.00848.
In the case of C82U A120U A145U C169A, the reverse-splicing fitness is reported as 0.00208.
With C82U A120U A145U C169A U176A the reverse-splicing fitness was 0.00185.
Work on C82U A120U A145U C169A U176C yielded a reverse-splicing fitness of 0.00166.
In the case of C82U A120U A145U C169A U176G, the reverse-splicing fitness is reported as 0.00174.
C82U A120U A145U C169G showed a reverse-splicing fitness of 0.00533.
C82U A120U A145U C169G U176A gave a reverse-splicing fitness of 0.00182.
Work on C82U A120U A145U C169G U176C yielded a reverse-splicing fitness of 0.00267.
C82U A120U A145U C169G U176G showed a reverse-splicing fitness of 0.0013.
In the case of C82U A120U A145U C169U, the reverse-splicing fitness is reported as 0.00594.
Work on C82U A120U A145U C169U U176A yielded a reverse-splicing fitness of 0.00227.
In the case of C82U A120U A145U C169U U176C, the reverse-splicing fitness is reported as 0.00358.
C82U A120U A145U C169U U176G showed a reverse-splicing fitness of 0.00161.
Variant C82U A120U A145U U176A has a reverse-splicing fitness of 0.0411.
C82U A120U A145U U176C showed a reverse-splicing fitness of 0.0847.
In the case of C82U A120U A145U U176G, the reverse-splicing fitness is reported as 0.013.
Work on C82U A120U C150A yielded a reverse-splicing fitness of 0.0169.
For C82U A120U C150A C169A, the reverse-splicing fitness was 0.00297.
In the case of C82U A120U C150A C169A U176A, the reverse-splicing fitness is reported as 0.00373.
With C82U A120U C150A C169A U176C the reverse-splicing fitness was 0.0026.
C82U A120U C150A C169A U176G showed a reverse-splicing fitness of 0.00199.
C82U A120U C150A C169G gave a reverse-splicing fitness of 0.00313.
Work on C82U A120U C150A C169G U176A yielded a reverse-splicing fitness of 0.00443.
C82U A120U C150A C169G U176C gave a reverse-splicing fitness of 0.00268.
With C82U A120U C150A C169G U176G the reverse-splicing fitness was 0.00171.
With C82U A120U C150A C169U the reverse-splicing fitness was 0.00341.
In the case of C82U A120U C150A C169U U176A, the reverse-splicing fitness is reported as 0.00411.
C82U A120U C150A C169U U176C showed a reverse-splicing fitness of 0.00331.
In the case of C82U A120U C150A C169U U176G, the reverse-splicing fitness is reported as 0.00201.
Work on C82U A120U C150A U176A yielded a reverse-splicing fitness of 0.00756.
Variant C82U A120U C150A U176C has a reverse-splicing fitness of 0.0109.
C82U A120U C150A U176G showed a reverse-splicing fitness of 0.00418.
Work on C82U A120U C150G yielded a reverse-splicing fitness of 0.0156.
With C82U A120U C150G C169A the reverse-splicing fitness was 0.00679.
Variant C82U A120U C150G C169A U176A has a reverse-splicing fitness of 0.00476.
C82U A120U C150G C169A U176C showed a reverse-splicing fitness of 0.003.
With C82U A120U C150G C169A U176G the reverse-splicing fitness was 0.00234.
Work on C82U A120U C150G C169G yielded a reverse-splicing fitness of 0.0055.
With C82U A120U C150G C169G U176A the reverse-splicing fitness was 0.00396.
For C82U A120U C150G C169G U176C, the reverse-splicing fitness was 0.00212.
For C82U A120U C150G C169G U176G, the reverse-splicing fitness was 0.0022.
With C82U A120U C150G C169U the reverse-splicing fitness was 0.00386.
C82U A120U C150G C169U U176A showed a reverse-splicing fitness of 0.00334.
Work on C82U A120U C150G C169U U176C yielded a reverse-splicing fitness of 0.00349.
C82U A120U C150G C169U U176G gave a reverse-splicing fitness of 0.00244.
C82U A120U C150G U176A gave a reverse-splicing fitness of 0.00531.
With C82U A120U C150G U176C the reverse-splicing fitness was 0.00788.
Variant C82U A120U C150G U176G has a reverse-splicing fitness of 0.0022.
Work on C82U A120U C150U yielded a reverse-splicing fitness of 0.0886.
For C82U A120U C150U C169A, the reverse-splicing fitness was 0.00404.
Work on C82U A120U C150U C169A U176A yielded a reverse-splicing fitness of 0.00329.
Work on C82U A120U C150U C169A U176C yielded a reverse-splicing fitness of 0.00192.
C82U A120U C150U C169A U176G showed a reverse-splicing fitness of 0.00208.
With C82U A120U C150U C169G the reverse-splicing fitness was 0.00457.
Work on C82U A120U C150U C169G U176A yielded a reverse-splicing fitness of 0.0036.
For C82U A120U C150U C169G U176C, the reverse-splicing fitness was 0.00284.
C82U A120U C150U C169G U176G showed a reverse-splicing fitness of 0.00155.
Variant C82U A120U C150U C169U has a reverse-splicing fitness of 0.00548.
C82U A120U C150U C169U U176A gave a reverse-splicing fitness of 0.00407.
For C82U A120U C150U C169U U176C, the reverse-splicing fitness was 0.0038.
Work on C82U A120U C150U C169U U176G yielded a reverse-splicing fitness of 0.00209.
C82U A120U C150U U176A showed a reverse-splicing fitness of 0.0245.
C82U A120U C150U U176C gave a reverse-splicing fitness of 0.0451.
Work on C82U A120U C150U U176G yielded a reverse-splicing fitness of 0.00728.
Variant C82U A120U C169A has a reverse-splicing fitness of 0.00227.
With C82U A120U C169A U176A the reverse-splicing fitness was 0.00238.
With C82U A120U C169A U176C the reverse-splicing fitness was 0.00216.
For C82U A120U C169A U176G, the reverse-splicing fitness was 0.00126.
C82U A120U C169G showed a reverse-splicing fitness of 0.00592.
C82U A120U C169G U176A showed a reverse-splicing fitness of 0.00252.
In the case of C82U A120U C169G U176C, the reverse-splicing fitness is reported as 0.00306.
In the case of C82U A120U C169G U176G, the reverse-splicing fitness is reported as 0.0015.
With C82U A120U C169U the reverse-splicing fitness was 0.00737.
Work on C82U A120U C169U U176A yielded a reverse-splicing fitness of 0.00362.
Variant C82U A120U C169U U176C has a reverse-splicing fitness of 0.0045.
